Patent US20210253718A1 (MODMAB THERAPEUTICS, published 2021)

T1: FZD3 cysteine-rich domain (CRD), MYC-tagged and GPI-anchored on CHO cells (human, UniProt Q9NPG1 24-150, GPI anchor)
T1 construct: domain: cysteine-rich domain (CRD); also called FZD3 CRD; CHO-myc-FZDGPI; not shown: MYC tag and GPI anchor signal
T1 sequence (looked up): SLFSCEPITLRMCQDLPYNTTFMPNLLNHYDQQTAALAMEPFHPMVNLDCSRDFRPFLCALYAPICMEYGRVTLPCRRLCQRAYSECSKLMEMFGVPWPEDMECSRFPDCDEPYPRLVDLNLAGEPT

T2: FZD4 cysteine-rich domain (CRD), MYC-tagged and GPI-anchored on CHO cells (human, UniProt Q9ULV1 42-167, GPI anchor)
T2 construct: also called FZD4 CRD; CHO-myc-FZDGPI; not shown: MYC tag and GPI anchor signal
T2 sequence: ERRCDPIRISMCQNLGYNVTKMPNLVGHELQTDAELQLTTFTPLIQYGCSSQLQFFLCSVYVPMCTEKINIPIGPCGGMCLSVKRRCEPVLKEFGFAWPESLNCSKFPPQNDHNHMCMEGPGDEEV

T3: FZD9 cysteine-rich domain (CRD), MYC-tagged and GPI-anchored on CHO cells (human, UniProt O00144 35-161, GPI anchor)
T3 construct: also called FZD9 CRD; CHO-myc-FZDGPI; not shown: MYC tag and GPI anchor signal
T3 sequence: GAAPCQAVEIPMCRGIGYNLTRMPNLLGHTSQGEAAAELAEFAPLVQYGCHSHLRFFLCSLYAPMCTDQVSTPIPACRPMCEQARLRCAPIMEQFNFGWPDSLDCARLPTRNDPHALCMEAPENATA

T4: FZD6 cysteine-rich domain (CRD), MYC-tagged and GPI-anchored on CHO cells (human, UniProt O60353 20-146, GPI anchor)
T4 construct: also called FZD6 CRD; CHO-myc-FZDGPI; not shown: MYC tag and GPI anchor signal
T4 sequence: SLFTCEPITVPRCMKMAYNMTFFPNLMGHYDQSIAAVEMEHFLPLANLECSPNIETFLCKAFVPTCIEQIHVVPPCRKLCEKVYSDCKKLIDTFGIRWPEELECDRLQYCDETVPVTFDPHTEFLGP

T5: FZD10 cysteine-rich domain (CRD), MYC-tagged and GPI-anchored on CHO cells (human, UniProt Q9ULW2 30-156, GPI anchor)
T5 construct: also called FZD10 CRD; CHO-myc-FZDGPI; not shown: MYC tag and GPI anchor signal
T5 sequence: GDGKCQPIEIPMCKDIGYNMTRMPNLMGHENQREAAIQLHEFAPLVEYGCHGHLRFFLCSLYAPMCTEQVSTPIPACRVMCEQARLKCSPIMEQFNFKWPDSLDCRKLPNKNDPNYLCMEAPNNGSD

T6: FZD8 cysteine-rich domain (CRD), MYC-tagged and GPI-anchored on CHO cells (human, UniProt Q498S8 31-155 (rat entry), GPI anchor)
T6 construct: also called FZD8 CRD; CHO-myc-FZDGPI; not shown: MYC tag and GPI anchor signal
T6 sequence: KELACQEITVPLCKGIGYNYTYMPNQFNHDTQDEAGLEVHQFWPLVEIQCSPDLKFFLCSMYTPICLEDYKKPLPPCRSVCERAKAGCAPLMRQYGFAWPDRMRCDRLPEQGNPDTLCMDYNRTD

T7: FZD5 cysteine-rich domain (CRD), MYC-tagged and GPI-anchored on CHO cells (human, UniProt Q13467 29-156, GPI anchor)
T7 construct: also called FZD5 CRD; CHO-myc-FZDGPI; not shown: MYC tag and GPI anchor signal
T7 sequence: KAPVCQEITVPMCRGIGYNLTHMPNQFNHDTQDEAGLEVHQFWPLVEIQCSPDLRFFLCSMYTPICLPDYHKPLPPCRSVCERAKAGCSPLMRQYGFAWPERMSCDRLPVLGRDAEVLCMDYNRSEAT


Legend:
[1] = molecular target: T1, FZD3 cysteine-rich domain (CRD), …; assay: immunofluorescence, CHO-CRD cells
[2] = molecular target: T2, FZD4 cysteine-rich domain (CRD), …; assay: immunofluorescence, CHO-CRD cells
[3] = molecular target: T8, FZD7 cysteine-rich domain (CRD), MYC-tagged and GPI-anchored on CHO cells (human, UniProt O75084 45-169); assay: immunofluorescence, CHO-CRD cells
[4] = molecular target: T3, FZD9 cysteine-rich domain (CRD), …; assay: immunofluorescence, CHO-CRD cells
[5] = molecular target: T9, FZD1 cysteine-rich domain (CRD), MYC-tagged and GPI-anchored on CHO cells (human); assay: immunofluorescence, CHO-CRD cells
[6] = molecular target: T4, FZD6 cysteine-rich domain (CRD), …; assay: immunofluorescence, CHO-CRD cells
[7] = molecular target: T10, FZD2 cysteine-rich domain (CRD), MYC-tagged and GPI-anchored on CHO cells (human, UniProt Q14332 35-161); assay: immunofluorescence, CHO-CRD cells
[8] = molecular target: T5, FZD10 cysteine-rich domain (CRD), …; assay: immunofluorescence, CHO-CRD cells
[9] = molecular target: T6, FZD8 cysteine-rich domain (CRD), …; assay: flow cytometry, CHO-CRD cells;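 note: flow cytometry of Fab binding to CHO cells overexpressing a Frizzled CRD, with binding defined as median fluorescence over twice that of CHO cells lacking any Frizzled CRD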
Description: (§1) Binding was measured via flow cytometry analysis of CHO cells overexpressing CRD of FZD1, FZD2, FZD3, FZD4, FZD5, FZD6, FZD7, FZD8, FZD9 or FZD10. Median fluorescence values are shown.

[10] = molecular target: T1, FZD3 cysteine-rich domain (CRD), …; assay: flow cytometry, CHO-CRD cells;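 note: flow cytometry of Fab binding to CHO cells overexpressing a Frizzled CRD, with binding defined as median fluorescence over twice that of CHO cells lacking any Frizzled CRD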
Description: as §1

[11] = molecular target: T2, FZD4 cysteine-rich domain (CRD), …; assay: flow cytometry, CHO-CRD cells;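 note: flow cytometry of Fab binding to CHO cells overexpressing a Frizzled CRD, with binding defined as median fluorescence over twice that of CHO cells lacking any Frizzled CRD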
Description: as §1

[12] = molecular target: T8, FZD7 cysteine-rich domain (CRD), …; assay: flow cytometry, CHO-CRD cells;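 note: flow cytometry of Fab binding to CHO cells overexpressing a Frizzled CRD, with binding defined as median fluorescence over twice that of CHO cells lacking any Frizzled CRD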
Description: as §1

[13] = molecular target: T3, FZD9 cysteine-rich domain (CRD), …; assay: flow cytometry, CHO-CRD cells
Description: as §1

[14] = molecular target: T7, FZD5 cysteine-rich domain (CRD), …; assay: flow cytometry, CHO-CRD cells
Description: as §1

[15] = molecular target: T9, FZD1 cysteine-rich domain (CRD), …; assay: flow cytometry, CHO-CRD cells
Description: as §1

[16] = molecular target: T4, FZD6 cysteine-rich domain (CRD), …; assay: flow cytometry, CHO-CRD cells
Description: as §1

[17] = molecular target: T10, FZD2 cysteine-rich domain (CRD), …; assay: flow cytometry, CHO-CRD cells
Description: as §1

[18] = molecular target: T5, FZD10 cysteine-rich domain (CRD), …; assay: flow cytometry, CHO-CRD cells
Description: as §1

[19] = molecular target: T1, FZD3 cysteine-rich domain (CRD), …; assay: flow cytometry on CHO-GPI cells over-expressing the Frizzled CRD;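 note: binding of recombinant anti-Frizzled Fabs to the cells, read as fold mean fluorescence intensity above secondary-antibody-only background and normalized to control CHO-GPI cells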
Excerpt: (§2) Specificity profiling of the Frizzled profiler Fabs by flow cytometry in CHO-GPI cells over-expressing CRDs of FZD1, FZD2, FZD3, FZD4, FZD5, FZD6, FZD7, FZD8, FZD9 or FZD10. Numerical values indicate a fold-increase in mean fluorescence intensity of the reacting Fab over the background (secondary antibody alone) normalized to the control (C, CHO-GPI).
(§3) To characterize the binding specificity of these Fabs on cells, a panel of 10 CHO cell lines was generated, each expressing the CRD domain of a different myc-tagged Frizzled family member anchored at the plasma membrane through a GPI anchor (CHO-myc-FZDGPI).

[20] = molecular target: T2, FZD4 cysteine-rich domain (CRD), …; assay: as above
Excerpt: as §2, §3

[21] = molecular target: T8, FZD7 cysteine-rich domain (CRD), …; assay: as above
Excerpt: as §2, §3

[22] = molecular target: T3, FZD9 cysteine-rich domain (CRD), …; assay: as above
Excerpt: as §2, §3

[23] = molecular target: T7, FZD5 cysteine-rich domain (CRD), …; assay: as above
Excerpt: as §2, §3

[24] = molecular target: T4, FZD6 cysteine-rich domain (CRD), …; assay: as above
Excerpt: as §2, §3

[25] = molecular target: T5, FZD10 cysteine-rich domain (CRD), …; assay: as above
Excerpt: as §2, §3

Row | binding result [1] | binding result [2] | binding result [3] | binding result [4] | binding result [5] | binding result [6] | binding result [7] | binding result [8] | median fluorescence [9] | median fluorescence [10] | median fluorescence [11] | median fluorescence [12] | median fluorescence [13] | median fluorescence [14] | median fluorescence [15] | median fluorescence [16] | median fluorescence [17] | median fluorescence [18] | Binder | also measured
1 | no binding | no binding | no binding | no binding | no binding | no binding | no binding | no binding | 12.1 | 4.7 | 6.38 | 6.49 | 4.49 | 39.2 | 6.26 | 4.49 | 6.73 | 4.78 | Fab-2924 (Fab, V domains shown, Fab; also called Fv-2924) VH: EVQLVESGGGLVQPGGSLRLSCAASGFNISYSYIHWVRQAPGKGLEWVASIYSYYSSTSYADSVKGRFTISADTSKNTAYLQMNSLRAEDTAVYYCARGALDYWGQGTLVTVSS VL: DIQMTQSPSSLSASVGDRVTITCRASQSVSSAVAWYQQKPGKAPKLLIYSASSLYSGVPSRFSGSRSGTDFTLTISSLQPEDFATYYCQQWYSGHSLITFGQGTKVEIK | 
2 | no binding | no binding | no binding | no binding | no binding | no binding | no binding | no binding | 12.9 | 4.61 | 6.73 | 2.71 | 3.65 | 34.6 | 7.17 | 3.05 | 6.21 | 2.92 | Fab-2926 (Fab, V domains shown, Fab; also called Fv-2926) VH: EVQLVESGGGLVQPGGSLRLSCAASGFNIYSSYMHWVRQAPGKGLEWVASIYPSSSSTSYADSVKGRFTISADTSKNTAYLQMNSLRAEDTAVYYCARGGLDYWGQGTLVTVSS VL: DIQMTQSPSSLSASVGDRVTITCRASQSVSSAVAWYQQKPGKAPKLLIYSASSLYSGVPSRFSGSRSGTDFTLTISSLQPEDFATYYCQQWYHGGSLFTFGQGTKVEIK | 
3 |  |  |  |  |  |  |  |  |  | 4.37 | 5.19 | 5.94 | 4.49 | 42.9 |  | 3.08 |  | 3.96 | Fab-2928 (Fab, V domains shown, Fab; also called Fv-2928) VH: EVQLVESGGGLVQPGGSLRLSCAASGFNISYSSIHWVRQAPGKGLEWVASIYPSYSSTYYADSVKGRFTISADTSKNTAYLQMNSLRAEDTAVYYCARYYAMDYWGQGTLVTVSS VL: DIQMTQSPSSLSASVGDRVTITCRASQSVSSAVAWYQQKPGKAPKLLIYSASSLYSGVPSRFSGSRSGTDFTLTISSLQPEDFATYYCQQAFYYPITFGQGTKVEIK | binding result [19]: no binding (tested: 200 nM); binding result [20]: no binding (tested: 200 nM); binding result [21]: no binding (tested: 200 nM); binding result [22]: no binding (tested: 200 nM); fold-increase in mean fluorescence intensity over background (secondary antibody alone), normalized to control CHO-GPI [23]: 13 fold; binding result [24]: no binding (tested: 200 nM); binding result [25]: no binding (tested: 200 nM)
